Experimental data from patent US20090246756A1, “Thermostable polypeptide having polynucleotide kinase activity and/or phosphatase activity” (Prokaria Ehe, priority 2004, published 2009).
Several values for one entry are separate records, joined by “and”; a condition that tells them apart may be missing. Equal values may be shown once. Entries after “also recorded” stand apart in the source; their conditions may differ.

Tests used:
d(A20) = assay: 5′ kinase reaction, ssDNA oligomer titration and labelling; type: biochemical
Experimental: (§1) The standard PNK assay developed by Richardsson (Richardson, C. C. (1965) Proc Natl Acad Sci USA 54, 158-165) that measures conversion of γ-32P-ATP, was used for characterization of the RM378 PNK with some minor modifications. Standard reaction conditions were: 50 mM MOPS buffer pH 8.5, 1 mM DTT, 10 mM MgCl2, 25 μg/ml BSA, 1 mM spermidine and 5% PEG6000, 100 μM ATP (mixture of normal and γ-32P-ATP) and 0.5 mg/ml partial mircococcal nuclease digested calf thymus DNA or 50-100 μM DNA/RNA oligomers, and 0.0001-0.001 mg/ml PNK enzyme, incubated at 70° C. for 15-30 minutes.
(§2) Titration curves for ATP, r(A20) and single stranded d(A20) oligomers were done to calculate Km values and find the maximum velocity of the 5′ kinase reaction. The results are shown for ATP in FIG. 4B and for, r(A20) and d(A20) in FIGS. 4C.
(§3) To investigate the completeness of the 5′ kinase reaction, both r(A20) and d(A20) oligos at 20 μM concentration were labeled in a 10 μM ^32P labeled ATP mixture under optimal conditions. […] The RM378 PNK is therefore an excellent enzyme for nucleic acid labeling at elevated temperatures.

ssDNA oligomer = assay: Effect of ADP on 5′ kinase, dephosphorylation and phosphate exchange reactions; type: biochemical; conditions: for effect of ADP on 5′ kinase activity: 5′ hydroxylated ssDNA, increasing ADP; for phosphate exchange reaction on 5′ phosphorylated oligomer: independent of ADP concentration, 0 to 1 mM ADP; for effect of ADP on dephosphorylation of 5′ phosphorylated ssDNA: only ADP and 32P-labeled oligomer, no ATP
Experimental: Effect of ADP was tested on three kind of reactions i) exchange reaction ii) 5′ kinase reaction and iii) dephosphosphorylation. This was done, by titrating different amounts of ADP to reaction mixtures containing i) 10 μM phosphorylated ssDNA oligo 10 μM γ-^32P-ATP, ii) 10 μM 5′ hydroxylated ssDNA oligomer with 10 μM γ-^32P-ATP, and iii) with 5′ ^32P-labeled ssDNA oligomer without ATP.
The effect of addition of ADP to 5′ kinase activity, dephosphorylation, and phosphate exchange was studied in controlled assay with 10:10 μM ATP and oligomer and by titrating the ADP concentration. […] On the other hand, when labelling an already phosphorylated oligomer, the exchange reaction was overall about 5-8% independent of the ADP concentration, from 0 to 1 mM ADP.

[1] = 3′ phosphohydrolase assay (phosphate release, Biomol Green) on CAMP; conditions: for 3′ phosphohydrolase activity on CAMP, enzyme comparison: 20 units enzyme, pH 6, 2 hours, 37° C. (T4) / 70° C. (RM378)
Experimental: (§4) For example, the following assay can be used: in a potassium acetate buffer, pH 6.0, with 5 mM MnCl2, 1 mM DTT, and 10 mM KCl2, the enzyme is incubated (at 0.05 mg enzyme/ml) with substrate, such as 0.1-5 mM 3′-thymidine mono-phosphate (3′-TMP) or cyclic 2′-3′cyclic adenosine mono-phosphate (cAMP), for 30-60 minutes at suitable temperature, for example at 70-75° C. for RM378 kinase. The reaction is then quenched by adding 90 μL of Biomol Green reagent (Biomol Research Laboratories, Plymouth Meeting, Pa.) to 10 μL reaction. The release of phosphate is then measured at A 620 nm in a spectrophotometer and compared to a phosphate standard curve.
(§5) After determination of pH, cation and apparent temperature optimum, the standard phosphohydrolase assay was: Potassium acetate buffer pH 6.0, 5 mM MnCl2, 1 mM DTT, 10 mM KCl2, 0.1-5 mM CAMP and 0.05 mg/ml PNK. Reaction time was 30-60 minutes at 70-75° C. The reaction was quenched by adding 90 μL of Biomol Green reagent (Biomol Research Laboratories, Plymouth Meeting, Pa.) to 10 μL reaction. The release of phosphate was measured at A 620 nm in a Sunrise Absorbance Reader (Tecan Group Ltd, Maennedorf, Switzerland) and compare to a phosphate standard curve.
(§6) The characterization of the phosphohydrolase activity was done using two substrates: 3′-thymidine mono-phosphate (3′TMP) and cyclic 2′-3′cyclic adenosine mono-phosphate (cAMP). Determination of pH optimum was done with MOPS and potassium acetate buffers using 0.1 mM CAMP and 0.05 mg/ml PNK, apparent T optimum was also done under the standard condition by assaying at different temperatures. Protein concentration curve was done with CAMP at pH 6 in K-acetate buffer and different amount of PNK. Substrate concentration curves were done for CAMP and 3′TMP, under the standard conditions using different amount of substrates.
(§7) Comparison was done between RM378 and T4 PNK using CAMP, 3′TMP and d(A15)—PO4^− oligomer as substrates, all in 0.1 mM concentration with 20 units of the enzymes in 20 μL reaction volumes using potassium acetate buffer pH 6 with both Mg^2+ and Mn^2+ as the divalent cation. The reactions were carried out for 2 hours at 37° C. and 70° C. for T4 and RM378 PNK, respectively.

[2] = test system: partial mircococcal nuclease digested calf thymus DNA or DNA/RNA oligomers; assay: 5′ kinase standard PNK assay (conversion of γ-32P-ATP); type: biochemical; conditions: for increase in 5′ kinase activity by PEG6000: 5-10% PEG6000; for 5′ kinase activity with Mn^2+ compared to Mg^2+: divalent cation essential
Experimental: The 5′-kinase activity may be determined by an appropriate assay such as an assay developed for T4 PNK that measures conversion of ATP labelled with radioactive gamma-phosphate group (Richardson, C. C. (1965) Proc Natl Acad Sci U.S.A. 54, 158-165). The standard assay may be modified according to the requirement of a specific PNK. For example, for RM378 PNK the typical reaction conditions are 50 mM MOPS buffer pH 8.5, 1 mM DTT, 10 mM MgCl2, 25 μg/ml BSA, 1 mM spermidine and 5% PEG6000, 100 μM ATP (mixture of normal and γ-32P-ATP) and 0.5 mg/ml partial micrococcal nuclease digested calf thymus DNA or 50-100 μM DNA/RNA oligomers, and 0.0001-0.001 mg/ml PNK enzyme. The reaction mixture is then incubated at 70° C. for 15-30 minutes.
as §1

[3] = test system: partial mircococcal nuclease digested calf thymus DNA or DNA/RNA oligomers; assay: as above; type: biochemical; conditions: standard assay at different temperatures for one hour
[4] = 5′ kinase reaction, ATP titration; type: biochemical; conditions: Lineweaver-Burk plot
Experimental: as §1, §2

r(A20) = assay: 5′ kinase reaction, RNA oligomer titration and labelling; type: biochemical
Experimental: as §1, §2, §3

[5] = 3′ phosphohydrolase assay (phosphate release, Biomol Green) on 3′TMP; type: biochemical
Experimental: as §4, §5, §6
Comparison was done between RM378 and T4 PNK using CAMP, 3′TMP and d(A15)—PO4^− oligomer as substrates, all in 0.1 mM concentration with 20 units of the enzymes in 20 μL reaction volumes using potassium acetate buffer pH 6 with both Mg^2+ and Mn^2+ as the divalent cation. […]

d(A15)—PO4^− oligomer = assay: 3′ phosphohydrolase comparison of RM378 and T4 PNK on 3′ phosphorylated oligomer; type: biochemical; conditions: 0.1 mM substrate, 20 units enzyme, pH 6, 2 hours, 37° C. (T4) / 70° C. (RM378)
Experimental: as §7

B1: RM378 PNK: novel thermostable polynucleotide kinase (5′-kinase and 3′-phosphatase activity) from the thermophilic bacteriophage RM378, SEQ ID NO: 2 (protein)
chain: MPNFITNIRNSRFKEVLTEMYHCHHESEYHLEGNVLNHTLMVLQVVDKITADHREQTNLSLTALLHDSGKPYTRVVERGRVMFPGHEGVSTYIAPLLLCEVLRDSLITPKDAIQILYGVNYHMLHWKNPNLFMRLFTEMVNYTCLYNFLKKFNQCDLKGRVSTKPQKQEFPVIHYFENTPIGTVERHVYFMIGVPGSGKSTFLQKVGEGAIVSRDEIMMEYAAEIGITGDYNTVFREIHNNPMHKTKVNNRYMNAFRKAVEENEKVFVDATNMSYKSRRRFYNALRRDIAETVGYHYIVMLPDYFTCIERAENREGKSISREVVTDIARSLLLPCREHPNSIDTTIYMSDGHDEHVLRVAW
modifications: Bacteriophage RM378; HDmotif (66)..(67) HD motif is characteristic of HD phophohydrolase family of enzymes
With B1 the “completeness of 5′ kinase labelling reaction, DNA” value (d(A20); 20 μM d(A20), 10 μM 32P-labeled ATP, 70° C., 30 min) was “the ATP was depleted; also recorded: completely depleted the ATP when using 5 U per reaction”, the “Vmax of 5′ kinase reaction on d(A20)” value (d(A20); Example 2) was 220 μmolmg^−1h^−1 and the “Vmax of 5′ kinase activity on DNA” value (d(A20); FIG. 6C legend) was 160 µmol/h/mg. For the same molecule, the “5′ kinase activity on ssDNA compared to RNA” value (d(A20); d(A20) versus r(A20)) was “somewhat better activity on ssDNA when compared to RNA”, the Km (d(A20); single stranded d(A20), read-out: Km for DNA, 5′ kinase reaction) was ~1.3 µM and 1.5 µM and the “effect of ADP on 5′ kinase activity” value (ssDNA oligomer) was “inhibited as the concentration of ADP increased”. For the same molecule, the “effect of ADP on 5′ kinase activity” value (ssDNA oligomer; listed as PNK) was “decreased with increasing ADP concentration”, the “ADP concentration giving complete inhibition of 5′ kinase activity” value (ssDNA oligomer; 10:10 μM ATP and oligomer) was 50 µM and the “phosphate exchange reaction on 5′ phosphorylated oligomer” value (ssDNA oligomer) was 3-8%. The “phosphate exchange reaction on 5′ phosphorylated oligomer” value (ssDNA oligomer; listed as PNK) was 5-8%, the “effect of ADP on dephosphorylation of 5′ phosphorylated ssDNA” value (ssDNA oligomer) was “The dephosphorylation increased as the ADP concentration increased” and the “effect of ADP on dephosphorylation of 5′ phosphorylated ssDNA” value (ssDNA oligomer; listed as PNK) was “the level of dephosphorylation increased as the ADP concentration was increased”. For the same molecule, the “pH range with >40% 3′ phosphohydrolase activity” value [1] was 5.5-7.0 pH, the “temperature range with good (>50%) 3′ phosphohydrolase activity” value [1] was 65-80 °C and the “3′ phosphohydrolase activity on CAMP, enzyme comparison” value ([1]; 0.1 mM substrate) was “much better activity on the CAMP versus 3′-TMP”. For the same molecule, the “3′ phosphohydrolase activity on CAMP, enzyme comparison” value ([1]; 0.1 mM substrate, listed as RM378) was “high activity on CAMP”, the “higher 3′ phosphohydrolase activity with Mn^2+ than Mg^2+” value ([1]; CAMP as substrate, 1 mM cation) was 5-10 fold and the “3′ phosphohydrolase activity in presence of Mg2+, enzyme comparison” value ([1]; Mg2+ as cation, 0.1 mM substrate) was “little activity in presence of Mg2+”. The “apparent temperature optimum of 3′ phosphohydrolase activity” value ([1]; measured for one hour) was 75 °C, the “pH optimum of 3′ phosphohydrolase activity” value ([1]; potassium acetate pH 4-6 and MOPS pH 6-9, 0.1 mM CAMP, 0.05 mg/ml PNK) was about 6 pH and the Km ([1]; read-out: Km for CAMP, 3′ phosphohydrolase reaction, standard conditions, Mn2+) was 700 µM. For the same molecule, the “Vmax of 3′ phosphohydrolase reaction on CAMP” value ([1]; standard conditions, Mn2+) was 13.5 μmolmg^−1h^−1, the “3′ phosphohydrolase activity on CAMP relative to 3′TMP” value ([1]; substrate titration, standard assay conditions with Mn2+) was “much more phosphohydrolase activity on CAMP compared to 3′TMP; also recorded: several-fold higher on CAMP than 3′TMP” and the “effect of spermidine on 5′ kinase activity” value [2] was “limited”. For the same molecule, the “increase in 5′ kinase activity by PEG6000” value [2] was “multi-fold”, the “increase in 5′ kinase activity by PEG6000” value ([2]; listed as PNK) was 3-4 fold and 4 fold and the “Mg^2+ concentration at which maximum 5′ kinase activity was reached” value ([2]; Mg^2+) was 100 µM. For the same molecule, the “Mn^2+ concentration at which maximum 5′ kinase activity was reached” value ([2]; Mn^2+) was 10 µM, the “effect of Mn^2+ concentration over 100 μM on 5′ kinase reaction” value ([2]; Mn^2+ over 100 μM) was “severely inhibited the reaction” and the “effect of PEG6000 at higher concentrations on 5′ kinase reaction” value ([2]; PEG6000 above 5-10%) was “inhibited the 5′ kinase reaction at higher concentrations”. The “effect of NaCl and KCl on PNK activity” value ([2]; concentrations higher than 10 mM) was “steady decrease in activity”, the “5′ kinase activity with Mn^2+ compared to Mg^2+” value [2] was “both Mg2+ and Mn2+ work equally well” and the “5′ kinase activity with Mn^2+ compared to Mg^2+” value ([2]; listed as PNK) was “Activity was similar for Mn^2+ and Mg^2+”. The “apparent temperature optimum of 5′ kinase activity” value [3] was 65-70 °C, the Km [4] was 20 µM and the “completeness of 5′ kinase labelling reaction, RNA” value (r(A20); 20 μM r(A20), 10 μM 32P-labeled ATP, 70° C., 30 min) was “the ATP was depleted; also recorded: completely depleted the ATP when using 5 U per reaction”. The “Vmax of 5′ kinase reaction on r(A20)” value (r(A20); Example 2) was 160 μmolmg^−1h^−1, the “Vmax of 5′ kinase activity on RNA” value (r(A20); FIG. 6C legend) was 220 µmol/h/mg and the Km (r(A20); r(A20)) was ~1.5 µM and 1.3 µM. The “3′ phosphohydrolase activity on 3′TMP, enzyme comparison” value ([5]; 0.1 mM substrate, 20 units enzyme, pH 6, 2 hours, 37° C. (T4) / 70° C. (RM378)) was “some activity on 3′TMP”, the “Vmax of 3′ phosphohydrolase reaction on 3′TMP” value ([5]; standard conditions, Mn2+) was 1.5 μmolmg^−1h^−1 and the Km ([5]; standard conditions, Mn2+, read-out: Km for 3TMP, 3′ phosphohydrolase reaction) was 60 µM. For the same molecule, the “3′ phosphohydrolase activity on d(A15)-3′PO4− oligomer, enzyme comparison” value (d(A15)—PO4^− oligomer) was “no detectable activity on the oligomer” and the “3′ phosphohydrolase activity on d(A15)-3′PO4− oligomer, enzyme comparison” value (d(A15)—PO4^− oligomer; listed as RM378) was “no activity on the oligomer”.
